How the values were obtained:
Assay in all cases: Kinase Profiling Assay
Assay type in all cases: biochemical
Conditions in all cases: 100 μM
EGFR(T790M, L858R) (h) = target: T1, EGFR(T790M, L858R) (h) (Homo sapiens, UniProt P00533, L858R/T790M)
T1 construct: purchased Millipore
Outline: (§1)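 Scintillation counting quantifies radiolabeled, positively charged substrate retained on a negatively charged filter after kinase reaction with labeled ATP; inhibitor peptide present.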

EphB4 (h) = target: T2, EphB4 (h) (Homo sapiens, UniProt P54760)
T2 sequence (P54760 16-987): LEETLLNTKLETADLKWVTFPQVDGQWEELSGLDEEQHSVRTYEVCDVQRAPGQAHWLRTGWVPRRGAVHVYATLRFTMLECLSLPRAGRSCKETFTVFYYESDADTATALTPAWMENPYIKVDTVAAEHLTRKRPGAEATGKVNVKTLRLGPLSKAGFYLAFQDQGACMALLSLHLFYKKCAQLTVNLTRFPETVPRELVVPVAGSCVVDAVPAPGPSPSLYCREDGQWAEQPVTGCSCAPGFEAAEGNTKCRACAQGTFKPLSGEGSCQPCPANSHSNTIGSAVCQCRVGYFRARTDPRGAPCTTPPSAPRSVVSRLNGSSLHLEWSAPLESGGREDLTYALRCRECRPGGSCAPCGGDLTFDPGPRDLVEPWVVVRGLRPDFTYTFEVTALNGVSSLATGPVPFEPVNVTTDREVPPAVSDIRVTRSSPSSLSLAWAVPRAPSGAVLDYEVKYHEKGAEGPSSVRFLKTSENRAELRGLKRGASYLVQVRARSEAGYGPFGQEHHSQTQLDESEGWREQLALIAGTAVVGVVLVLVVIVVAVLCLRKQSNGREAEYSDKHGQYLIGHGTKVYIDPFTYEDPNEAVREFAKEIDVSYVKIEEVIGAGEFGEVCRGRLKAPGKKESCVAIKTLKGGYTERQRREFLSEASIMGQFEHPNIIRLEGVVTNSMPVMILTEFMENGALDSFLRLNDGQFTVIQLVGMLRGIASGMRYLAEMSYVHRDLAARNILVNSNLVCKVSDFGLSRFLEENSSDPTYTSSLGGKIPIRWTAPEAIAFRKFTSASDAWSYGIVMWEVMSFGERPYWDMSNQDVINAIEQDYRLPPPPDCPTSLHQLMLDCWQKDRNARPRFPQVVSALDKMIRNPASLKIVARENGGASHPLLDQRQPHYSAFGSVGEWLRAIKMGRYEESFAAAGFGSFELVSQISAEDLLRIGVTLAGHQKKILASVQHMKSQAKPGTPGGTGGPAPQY
Outline: as §1

Fgr (h) = Fgr (h) (Homo sapiens, UniProt P09769)
Outline: as §1

GSK3β (h) = target: T3, GSK3β (h) (Homo sapiens, UniProt P49841)
T3 construct: purchased Millipore
Outline: as §1

IKKα (h) = target: T4, IKKα (h) (Homo sapiens, UniProt O15111)
T4 construct: purchased Millipore
T4 sequence (O15111 1-745): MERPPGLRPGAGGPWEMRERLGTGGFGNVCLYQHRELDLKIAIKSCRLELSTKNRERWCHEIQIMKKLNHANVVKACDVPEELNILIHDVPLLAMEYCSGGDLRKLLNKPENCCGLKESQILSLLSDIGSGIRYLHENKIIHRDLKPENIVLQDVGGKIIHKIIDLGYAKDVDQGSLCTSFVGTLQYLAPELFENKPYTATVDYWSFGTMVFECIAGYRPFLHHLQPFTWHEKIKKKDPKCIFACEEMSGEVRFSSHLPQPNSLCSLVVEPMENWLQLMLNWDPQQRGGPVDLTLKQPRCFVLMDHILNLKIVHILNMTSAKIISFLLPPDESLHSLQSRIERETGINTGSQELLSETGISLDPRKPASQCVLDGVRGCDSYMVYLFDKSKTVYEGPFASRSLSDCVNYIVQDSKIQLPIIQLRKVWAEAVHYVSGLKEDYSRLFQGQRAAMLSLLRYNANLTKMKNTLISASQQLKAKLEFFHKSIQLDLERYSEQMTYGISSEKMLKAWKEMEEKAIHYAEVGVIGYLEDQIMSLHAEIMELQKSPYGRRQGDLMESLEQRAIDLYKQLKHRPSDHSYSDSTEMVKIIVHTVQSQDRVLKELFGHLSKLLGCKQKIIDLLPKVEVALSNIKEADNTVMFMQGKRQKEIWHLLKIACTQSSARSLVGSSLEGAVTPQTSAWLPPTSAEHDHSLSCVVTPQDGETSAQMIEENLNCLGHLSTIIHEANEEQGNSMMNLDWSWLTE
Outline: as §1

PKCδ (h) = target: T5, PKCδ (h) (Homo sapiens, UniProt Q05655)
T5 construct: purchased Millipore
Outline: as §1

PRAK (h) = target: T6, PRAK (h) (Homo sapiens, UniProt Q8IW41)
T6 sequence (Q8IW41 1-473): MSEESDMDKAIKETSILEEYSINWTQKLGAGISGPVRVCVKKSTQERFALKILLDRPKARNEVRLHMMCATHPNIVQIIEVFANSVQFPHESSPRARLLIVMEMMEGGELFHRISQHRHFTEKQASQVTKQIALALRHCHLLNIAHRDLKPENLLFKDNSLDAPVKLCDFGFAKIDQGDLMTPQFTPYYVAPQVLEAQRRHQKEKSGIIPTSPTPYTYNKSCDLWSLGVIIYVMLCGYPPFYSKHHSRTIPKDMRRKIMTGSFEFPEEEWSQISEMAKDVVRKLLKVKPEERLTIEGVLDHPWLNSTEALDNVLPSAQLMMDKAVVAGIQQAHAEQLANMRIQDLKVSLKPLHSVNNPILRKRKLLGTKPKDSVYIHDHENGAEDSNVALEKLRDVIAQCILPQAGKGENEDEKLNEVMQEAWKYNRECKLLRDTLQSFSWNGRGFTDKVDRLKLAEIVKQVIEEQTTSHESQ
Outline: as §1

SIK (h) = SIK (h) (Homo sapiens, UniProt P57059)
Outline: as §1

T3 sequence (P49841 whole entry): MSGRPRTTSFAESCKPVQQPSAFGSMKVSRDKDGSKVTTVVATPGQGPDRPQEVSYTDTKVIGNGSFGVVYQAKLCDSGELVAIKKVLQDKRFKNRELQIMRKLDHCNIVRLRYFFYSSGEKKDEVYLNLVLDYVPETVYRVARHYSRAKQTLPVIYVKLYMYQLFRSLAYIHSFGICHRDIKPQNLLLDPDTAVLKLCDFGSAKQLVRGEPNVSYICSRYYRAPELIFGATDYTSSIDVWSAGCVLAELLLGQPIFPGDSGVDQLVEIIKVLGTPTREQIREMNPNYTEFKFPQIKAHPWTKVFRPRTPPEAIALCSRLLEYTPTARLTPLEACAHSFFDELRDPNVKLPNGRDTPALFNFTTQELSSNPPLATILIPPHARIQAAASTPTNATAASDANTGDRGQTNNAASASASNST
SIK (h), sequence (P57059 whole entry): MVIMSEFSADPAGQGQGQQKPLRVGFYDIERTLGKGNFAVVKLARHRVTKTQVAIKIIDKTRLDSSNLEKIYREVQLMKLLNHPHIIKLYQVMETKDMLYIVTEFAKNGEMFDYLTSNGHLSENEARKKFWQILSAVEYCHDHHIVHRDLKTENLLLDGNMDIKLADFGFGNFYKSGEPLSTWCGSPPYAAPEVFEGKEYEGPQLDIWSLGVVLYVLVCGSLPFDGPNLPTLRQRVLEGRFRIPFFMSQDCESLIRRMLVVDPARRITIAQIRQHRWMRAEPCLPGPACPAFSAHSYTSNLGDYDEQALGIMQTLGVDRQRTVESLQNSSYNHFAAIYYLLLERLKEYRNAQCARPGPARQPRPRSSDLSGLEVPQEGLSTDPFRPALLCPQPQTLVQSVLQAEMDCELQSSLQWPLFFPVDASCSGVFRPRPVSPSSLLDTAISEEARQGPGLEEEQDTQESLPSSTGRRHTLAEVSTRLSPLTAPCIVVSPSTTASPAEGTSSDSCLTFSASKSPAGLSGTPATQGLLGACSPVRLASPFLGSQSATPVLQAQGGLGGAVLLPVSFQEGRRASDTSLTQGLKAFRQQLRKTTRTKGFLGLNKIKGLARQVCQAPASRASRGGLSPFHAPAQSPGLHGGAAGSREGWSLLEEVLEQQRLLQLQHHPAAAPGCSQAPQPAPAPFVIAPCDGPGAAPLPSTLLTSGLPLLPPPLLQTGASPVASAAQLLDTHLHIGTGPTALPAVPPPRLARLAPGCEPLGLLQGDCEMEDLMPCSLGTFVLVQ
T5 sequence (Q05655 whole entry): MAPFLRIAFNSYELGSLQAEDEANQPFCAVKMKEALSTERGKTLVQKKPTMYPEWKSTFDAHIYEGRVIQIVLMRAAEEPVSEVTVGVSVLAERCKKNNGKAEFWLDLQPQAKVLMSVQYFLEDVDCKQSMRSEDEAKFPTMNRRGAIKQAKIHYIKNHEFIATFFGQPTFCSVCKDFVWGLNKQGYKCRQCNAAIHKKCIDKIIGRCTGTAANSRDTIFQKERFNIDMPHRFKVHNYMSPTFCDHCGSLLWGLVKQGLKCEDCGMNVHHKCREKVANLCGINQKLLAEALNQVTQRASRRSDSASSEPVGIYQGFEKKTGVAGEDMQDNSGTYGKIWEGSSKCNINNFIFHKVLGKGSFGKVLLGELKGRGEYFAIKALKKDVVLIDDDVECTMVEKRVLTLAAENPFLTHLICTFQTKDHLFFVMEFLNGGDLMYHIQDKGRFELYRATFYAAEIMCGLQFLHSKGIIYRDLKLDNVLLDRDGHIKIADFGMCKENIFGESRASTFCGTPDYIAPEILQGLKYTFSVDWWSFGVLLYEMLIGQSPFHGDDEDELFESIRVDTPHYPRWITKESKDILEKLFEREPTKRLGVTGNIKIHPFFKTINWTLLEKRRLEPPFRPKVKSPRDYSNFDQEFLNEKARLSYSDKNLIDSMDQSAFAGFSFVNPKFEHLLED

Sequence	% activity (EGFR(T790M, L858R) (h))	% activity (EphB4 (h))	% activity (Fgr (h))	% activity (GSK3β (h))	% activity (IKKα (h))	% activity (PKCδ (h))	% activity (PRAK (h))	% activity (SIK (h))
FAKLAARLYRKALARQLGVAA [MMI-0300]	85%	44%	60%	205%	93%	101%	128%	66%
KAFAKLAARLYRKALARQLGVAA [MMI-0400]	78%	28%	47%	202%	87%	90%	118%	68%
YARAAARQARAKALNRQLGVA (Mammalian) [MMI-0200]	108%	131%	71%	132%		101%		
HRRIKAWLKKIKALARQLGVAA (Mammalian) [MMI-0500]	53%	38%		238%	50%	61%	95%	40%

Reference: patent US10500249B2, “Compositions and methods for preventing or treating diseases, conditions, or processes characterized by aberrant fibroblast proliferation and extracellular matrix deposition” (MOERAE MATRIX, INC., priority 2014, dated 2019)
